Laboratory results taken from patent publication US7164008B2, “Isolated complexes of endotoxin and MD-2” (priority 2003, dated 2007).

Legend:
human airway epithelia [1] = test: MD-2 mRNA expression in human airway epithelia after stimuli (real time PCR); type: cell-based; details: 18–24 hr stimulation
Experimental: Fold increase in MD-2 mRNA expression was quantified using real time PCR. FIG. 10 represents the results from three independent experiments on three different epithelial preparations. * indicates p<0.05.
Real-time PCR was employed to detect human β-defensin-2 and MD-2 and to quantify changes in expression. Real-time quantitative PCR was performed using a sequence detector (ABI PRISM 7700, Applied Biosystems, Foster City, Calif.) and Taqman technology (Roche Molecular Diagnostic Systems) following the manufacturer's protocols (Bustin, 2000). The primers and probes were designed using the Primer Express program (Applied Biosystems). For MD-2, the primers were-forward5′-[…]-3′ (SEQ ID NO:11), reverse 5′-GCATTTCTTCTGGGCTCCC-3′ (SEQ ID NO:12), and probe 5′-[…]-3′ (SEQ ID NO:13). For HBD-2, the forward primer was-5′-[…]-3′ (SEQ ID NO:14), the reverse primer-5′-[…]-3′ (SEQ ID NO:15), and the probe was-5′-[…]-3′ (SEQ ID NO:16). Both probes contain a fluorescent reporter (6-Carboxyfluorescein [FAM]) at the 5′ end and a fluorescent quencher (6-Carboxytetramethylrhodamine [TAMRA]) at the 3′ end. As an internal control for normalization, human GAPDH real-time quantitative PCR was conducted in every reaction. The primers and probes were purchased from Roche Molecular Diagnostic Systems. The PCR fragments were amplified for 40 cycles (15 sec at 95° C. and 1 min at 60° C.). […]

human airway epithelia [2] = test: Endotoxin responsiveness of primary human airway epithelia (HBD-2 mRNA real time PCR, NF-κB-luciferase); type: cell-based; details: IL-1β 100 ng/ml, 24 hr, real time PCR
Experimental: FIG. 6 depicts endotoxin responsiveness of well-differentiated primary cultures of human airway epithelia. Polarized epithelia were treated with NTHi LOS (100 ng/ml), sCD14 (100 ng/ml) and LBP (250 ng/ml) by apical application in a 50 μl volume. Twenty-four hours later, epithelia were harvested and analyzed for HBD-2 mRNA expression by real time PCR. As depicted in FIG. 6A, apical stimulation of airway epithelia with NTHi LOS induced little change in HBD-2 MRNA expression (2 epithelia/trial, n=3 different donors, * indicates p<0.05). In contrast, IL-1β markedly induces HBD-2 mRNA. FIG. 6B depicts the polarity of epithelial responses to IL-1β and NTHi LOS. […]
FIG. 9 depicts the effects of MD-2 complementation on endotoxin responsiveness in human airway epithelia. […] Fold increase in HBD-2 mRNA expression were quantified by real time PCR. […] NF-κB-luciferase activity was measured 24 hr following endotoxin treatment (n=5 epithelia/condition, * indicates p<0.05). […] 24 hr after endotoxin treatment, HBD-2 expression was quantified by real time PCR. […]
Well differentiated human airway epithelia were treated with N. meningitidis LOS-sCD14 (5 ng LOS/ml), with or without the addition of cell culture supernatants containing rMD-2. […] HBD-2 expression was quantified by real time PCR. […]
Real-time PCR was employed to detect human β-defensin-2 and MD-2 and to quantify changes in expression. […]

MD-2 = test: Formation of [^14C]-LOS-MD-2 complex monitored by gel filtration chromatography; type: binding, human; details: 30 min, 37° C., Sephacryl S100
Experimental: In FIG. 2, a bioactive complex (Mr˜25,000) containing MD-2 and [^14C]-LOS is formed by incubation of [^14C]-LOS-sCD14 with wt, but not C95Y, MD-2. In FIG. 2A, dialyzed control insect cell medium (◯) or medium containing wt (♦) or C95Y ( ? ) MD-2 was incubated for 30 min, 37° C. with (1:1 vol/vol) [^14C]-LOS-sCD14 in HBSS+, 10 mM HEPES and chromatographed on Sephacryl S100. Column fractions were analyzed for [^14C]-LOS. Identical results were obtained in analytical (5 ng [^14C]-LOS/ml+200 μl culture medium) or more preparative runs (reagents concentrated 20×). […] Cell activation was measured by IL-8 accumulation. […]
Purified [^14C]-LOSagg or [^14C]-LOS-sCD14 (3 ng LOS/ml)+/−indicated proteins (30 ng/ml LBP, 250 ng/ml sCD14, 60 μl culture medium) were incubated at 37° C. for 30 min. After this incubation, samples were analyzed by gel filtration chromatography to monitor formation of [^14C]-LOS-MD-2 and by incubation with HEK/TLR4 cells to measure cell activation.
Columns of Sephacryl HR S200 (1.6 cm×30 cm) or S100 (1.0 cm×60 cm) were pre-equilibrated in 10 mM HEPES, HBSS^++/−0.1% HSA. […] Aliquots of the collected fractions were analyzed by liquid scintillation spectroscopy using a Beckman LS liquid scintillation counter to detect [^14C]-LOS. […]

TLR4 = biological target: T1, TLR4 (Homo sapiens, UniProt O00206+Q9Y6Y9); test: HEK cell activation assay: extracellular IL-8 by ELISA; type: cell-based
T1 construct: host or cells: HEK293 stably transfected with TLR4 (HEK/TLR4)
Text: Conditioned insect cell culture medium containing soluble, polyhistidine-tagged recombinant wild-type (wt) or C95Y mutant MD-2 were generated according to the method of Viriyakosol et al. (2001). A human embryonic kidney cell line (HEK293) that stably expresses TLR4 (HEK/TLR4), but lacks both CD14 and MD-2 (Yang et al., 2000), was used to evaluate the effect of MD-2 on the ability of lipooligosaccharide (LOS) to interact with TLR4 and promote activation.
FIG. 1 depicts the expression and bioactivity of recombinant MD-2-His6. FIGS. 1A and 1B depict SDS-PAGE immunoblots of control culture medium (FIG. 1A, lane 1) or medium from HiFive cells infected with recombinant baculovirus encoding wt (FIG. 1A, lane 2; FIG. 1B, lanes 1–3) or C95Y MD-2 (FIG. 1B, lane 4). MD-2 was detected using anti-(His)4 antibody. All samples represent 1 μl of culture medium except B, lanes 2 and 3, which represent 0.3 and 0.1 μl and A, lane 3, which represents molecular weight markers. In FIG. 1C, HEK/TLR4 cells were incubated in HEPES-buffered HBSS+/0.1% albumin with [^14C]-LOSagg (3 ng/ml)+/−LBP (30 ng/ml) and/or (60 μl) culture medium containing wt MD-2 (MD-2) (open bars); LOSagg+LBP and sCD14 (250 ng/ml)+/−wt (closed bars) or C95Y “MD-2” (striped bars), or [^14C]-LOS-sCD14 (2 ng LOS/ml)+/−wt or C95Y “MD-2” (closed bars). After overnight incubation, extracellular IL-8 was assayed by ELISA. In FIG. 1D, HEK/TLR4 cells were incubated with increasing amounts of wt (▪) or C95Y (◯) MD-2+[^14C]-LOS-sCD14 (2 ng/ml) and cell activation measured. Results shown are from one experiment (duplicate samples) representative of four independent experiments.
In FIG. 2, a bioactive complex (Mr˜25,000) containing MD-2 and [^14C]-LOS is formed by incubation of [^14C]-LOS-sCD14 with wt, but not C95Y, MD-2. In FIG. 2A, dialyzed control insect cell medium (◯) or medium containing wt (♦) or C95Y ( ? ) MD-2 was incubated for 30 min, 37° C. with (1:1 vol/vol) [^14C]-LOS-sCD14 in HBSS+, 10 mM HEPES and chromatographed on Sephacryl S100. Column fractions were analyzed for [^14C]-LOS. Identical results were obtained in analytical (5 ng [^14C]-LOS/ml+200 μl culture medium) or more preparative runs (reagents concentrated 20×). In FIG. 2B, peak fractions (Mr˜25,000) from treatment of [^14C]-LOS-sCD14 with wt MD-2 (FIG. 2A) were re-chromatographed on S100 in HBSS+, 10 mM HEPES without HSA; recovery of [^14C]-LOS was >80%. In FIG. 2C, HEK (□) or HEK/TLR4 (▪) were incubated overnight with the indicated amounts of LOS added as purified Mr˜25,000 (LOS-MD-2) complex. Cell activation was measured by IL-8 accumulation. Results shown correspond to one experiment, in duplicate, representative of three similar experiments. FIGS. 2D and 2E depict adsorption and elution of bioactive Mr˜25,000 complex to HisBind resin. Peak fractions of the purified complex (FIG. 2B; 10 ng [^14C]-LOS) were dialyzed against PBS and incubated with HisBind resin (0.125 ml) for 1 hr at 25° C. and processed as described in Methods. Non-adsorbed (Flow-thru) and adsorbed material eluted with 200 mM imidazole were precipitated with trichloroacetic acid to concentrate sample for SDS-PAGE/immunoblot analysis. […]
Purified [^14C]-LOSagg or [^14C]-LOS-sCD14 (3 ng LOS/ml)+/−indicated proteins (30 ng/ml LBP, 250 ng/ml sCD14, 60 μl culture medium) were incubated at 37° C. for 30 min. After this incubation, samples were analyzed by gel filtration chromatography to monitor formation of [^14C]-LOS-MD-2 and by incubation with HEK/TLR4 cells to measure cell activation. […]

T1 sequence (O00206 24-839): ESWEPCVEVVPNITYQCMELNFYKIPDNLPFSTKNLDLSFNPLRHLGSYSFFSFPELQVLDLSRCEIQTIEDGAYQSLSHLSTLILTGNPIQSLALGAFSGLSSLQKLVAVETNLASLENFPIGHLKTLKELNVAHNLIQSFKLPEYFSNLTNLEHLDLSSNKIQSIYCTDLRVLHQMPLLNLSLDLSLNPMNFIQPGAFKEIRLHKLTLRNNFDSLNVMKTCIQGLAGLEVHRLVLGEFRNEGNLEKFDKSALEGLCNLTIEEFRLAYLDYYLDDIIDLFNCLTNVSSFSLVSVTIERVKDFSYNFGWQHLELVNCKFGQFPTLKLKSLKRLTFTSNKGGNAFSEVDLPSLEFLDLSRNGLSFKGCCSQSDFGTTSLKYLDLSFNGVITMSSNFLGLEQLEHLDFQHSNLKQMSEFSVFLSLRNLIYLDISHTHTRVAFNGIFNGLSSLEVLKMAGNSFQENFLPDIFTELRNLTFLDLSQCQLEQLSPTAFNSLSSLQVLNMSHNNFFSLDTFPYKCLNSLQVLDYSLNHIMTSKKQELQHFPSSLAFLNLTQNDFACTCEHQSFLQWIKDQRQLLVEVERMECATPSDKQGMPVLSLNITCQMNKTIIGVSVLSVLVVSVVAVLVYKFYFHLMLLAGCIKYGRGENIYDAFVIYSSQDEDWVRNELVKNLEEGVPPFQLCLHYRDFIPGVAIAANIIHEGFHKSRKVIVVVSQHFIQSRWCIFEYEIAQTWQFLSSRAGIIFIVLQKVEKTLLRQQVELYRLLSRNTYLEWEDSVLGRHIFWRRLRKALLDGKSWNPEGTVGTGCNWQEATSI
T1 sequence (Q9Y6Y9 19-160): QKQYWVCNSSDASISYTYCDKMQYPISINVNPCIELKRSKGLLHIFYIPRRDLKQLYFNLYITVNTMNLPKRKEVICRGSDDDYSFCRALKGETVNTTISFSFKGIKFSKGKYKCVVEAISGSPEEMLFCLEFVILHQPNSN

CCCCCCCCCCCCCC(=O)O[C@@H]1[C@@H](C)[C@@]2(O)[C@@H](C=C(CO)C[C@]3(O)C(=O)C(C)=C[C@@H]23)[C@@H]2C(C)(C)[C@]12OC(C)=O [phorbol myristate acetate, reference compound]
steady state MD-2 mRNA levels (human airway epithelia [1]): induced

IL-1β: human recombinant IL-1β, positive control [reference compound]
increase in HBD-2 expression (human airway epithelia [2]): > 10,000 fold

B1: C95Y MD-2 (protein)
chain: QKQYWVCNSSDASISYTYCDKMQYPISINVNPCIELKRSKGLLHIFYIPRRDLKQLYFNLYITVNTMNLPKRKEVIYRGSDDDYSFCRALKGETVNTTISFSFKGIKFSKGKYKCVVEAISGSPEEMLFCLEFVILHQPNSNHHHHHH
reaction with [^14C]-LOS-sCD14 to generate new Mr˜25,000 [^14C]-LOS-containing complex (MD-2): no change
activation of HEK/TLR4 cells by LOS-sCD14 (or LOSagg+LBP+sCD14) on addition of medium containing MD-2 (TLR4; IL-8 release, LOS-sCD14 2 ng LOS/ml): not seen
inhibition of activation of HEK/TLR4 by [^14C]-LOS-MD-2 by added MD-2 (TLR4; [^14C]-LOS-MD-2 0.3 ng/ml, increasing amounts of conditioned medium): intermediate inhibitory effect

B2: P6: outer membrane protein P6 from non-typeable Haemophilus influenzae (protein, UniProt P10324 20-153, looked up)
Peptidoglycan-associated …: CSSSNNDAAGNGAAQTFGGYSVADLQQRYNTVYFGFDKYDITGEYVQILDAHAAYLNATPAAKVLVEGNTDERGTPEYNIALGQRRADAVKGYLAGKGVDAGKLGTVSYGEEKPAVLGHDEAAYSKNRRAVLAY
steady state MD-2 mRNA levels (human airway epithelia [1]): marked increases
